The record followed here is paper PMC3606566, “Structure of Pseudomonas aeruginosa inosine 5′-monophosphate dehydrogenase” (Acta Crystallographica Section F: Structural Biology and …, 2013).

This data set deals with the molecule itself. Put plainly: crystal structure; apo PaIMPDH, sitting-drop vapour diffusion, 0.2 M sodium acetate pH 4.5, 40% MPD, room temperature; space group I4, one subunit in the asymmetric unit, tetramer by the crystallographic fourfold axis; 2.25 Å.

B1: Pseudomonas aeruginosa inosine 5′-monophosphate dehydrogenase (enzyme, UniProt Q9HXM5 1-489, looked up)
chain: MLRISQEALTFDDVLLIPGYSEVLPKDVSLKTRLTRGIELNIPLVSAAMDTVTEARLAIAMAQEGGIGIIHKNMGIEQQAAEVRKVKKHETAIVRDPVTVTPSTKIIELLQMAREYGFSGFPVVEQGELVGIVTGRDLRVKPNAGDTVAAIMTPKDKLVTAREGTPLEEMKAKLYENRIEKMLVVDENFYLRGLVTFRDIEKAKTYPLASKDEQGRLRVGAAVGTGADTGERVAALVAAGVDVVVVDTAHGHSKGVIERVRWVKQTFPDVQVIGGNIATAEAAKALAEAGADAVKVGIGPGSICTTRIVAGVGVPQISAIANVAAALEGTGVPLIADGGIRFSGDLAKAMVAGAYCVMMGSMFAGTEEAPGEIELFQGRSYKSYRGMGSLGAMSGSQGSSDRYFQDASAGAEKLVPEGIEGRVPYKGALSAIVHQLMGGLRAAMGYTGSADIQQMRTQPQFVRITGAGMAESHVHDVQITKEAPNYRVG
notes: Inosine 5′-monophosphate dehydrogenase of Pseudomonas aeruginosa, full-length gene PA3770, amino acids 1-489, synthesised and codon-optimised for E. coli; Modified pET15b: N-terminal His tag followed by a TEV protease cleavage site; The His tag was still present at size-exclusion chromatography; The model holds only residues 1-91, 205-370 and 426-467; also called PaIMPDH; IMPDH; not shown: His …
B1: the stoichiometry N – broadly, the number of molecules, sites or subunits per partner or assembly – turned out to be 4.
